B1: Junin virus (JUNV) Z protein (natural protein)
chain: MGNCNGASKSNQPDSSRVTQPAAEFRRVAHSSLYGRYNCKCCWFADTNLITCNDHYLCLRCHQVMLRNSDLCNICWKPLPTTITVPVEPTAPPP

Molecular target: Junin virus (JUNV) L protein (Junin virus (JUNV))
Assay: MST; […] (20–[…]); […]; 50 mM HEPES pH 7.8, 500 mM NaCl, 1 mM TCEP; […]

Row | Molecule | Kd
1 | Z (AA 18–47) peptide of JUNV Z protein | 863 nM
2 | Z (AA 48–78) peptide of JUNV Z protein | 1150 nM
3 | B1 | 393 nM

— publication PMC8257661
